For series [1], the target named is T1, plasmin (Homo sapiens, UniProt P00747).
T1 construct: 100 μg/ml of plasmin (specific activity 3.2 units/mg, Sigma-Aldrich); purchased Sigma-Aldrich
Nature of the series: Stability of plasmin solutions (Chromozym TH chromogenic substrate, T 70%). Particulars: 100 μg/ml plasmin in 10 mM HEPES, 0.13 M NaCl, pH 7.4, 37° C. The class given is physicochemical. The method, then:
The stabilization of solutions of plasmin in accordance with the invention was tested. The activity of plasmin was determined using chromogenic peptide substrate Chromozym TH (Pentapharm, Switzerland) and measurement of absorbance change at 405 nm in a spectrophotometer. Solutions containing 100 μg/ml of plasmin (specific activity 3.2 units/mg, Sigma-Aldrich) in 10 mM HEPES and 0.13 M NaCl, pH 7.4, as well as stabilizers as indicated in Table 2 below were incubated at 37° C., and samples were taken out at various time intervals for activity determination.

Series [2] has as its target T2, trypsin (Bos taurus, UniProt P00760).
T2 construct: 100 μg/ml of trypsin (TPCK-treated, Sigma-Aldrich); purchased Sigma-Aldrich
T2 sequence (P00760 24-246): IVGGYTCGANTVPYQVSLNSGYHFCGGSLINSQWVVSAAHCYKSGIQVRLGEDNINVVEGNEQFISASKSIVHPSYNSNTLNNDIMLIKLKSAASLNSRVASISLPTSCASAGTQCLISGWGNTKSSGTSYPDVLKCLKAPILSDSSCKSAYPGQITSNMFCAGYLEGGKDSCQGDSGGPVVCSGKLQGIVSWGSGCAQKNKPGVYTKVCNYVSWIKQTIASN
Nature of the series: Stability of trypsin solutions (TAME substrate, T 70%). Format: physicochemical. The settings on record: 100 μg/ml trypsin in 10 mM HEPES, 0.13 M NaCl, pH 7.4, 37° C. The method, then:
The stabilization of solutions of trypsin in accordance with the invention was tested. The activity of trypsin was determined using tosyl arginine methyl ester (TAME) as substrate and measuring the absorbance change at 247 nm in a spectrophotometer. Solutions containing 100 μg/ml of trypsin (TPCK-treated, Sigma-Aldrich) in 10 mM HEPES and 0.13 M NaCl, pH 7.4, as well as stabilizers as indicated in Table 3 below were incubated at 37° C., and samples were taken out at various time intervals for activity determination.

B1: plasmin: plasmin, specific activity 3.2 units/mg, Sigma-Aldrich, solution without additives (protein, UniProt P00747 20-580; P00747 581-810, looked up)
Plasmin heavy chain A: EPLDDYVNTQGASLFSVTKKQLGAGSIEECAAKCEEDEEFTCRAFQYHSKEQQCVIMAENRKSSIIIRMRDVVLFEKKVYLSECKTGNGKNYRGTMSKTKNGITCQKWSSTSPHRPRFSPATHPSEGLEENYCRNPDNDPQGPWCYTTDPEKRYDYCDILECEEECMHCSGENYDGKISKTMSGLECQAWDSQSPHAHGYIPSKFPNKNLKKNYCRNPDRELRPWCFTTDPNKRWELCDIPRCTTPPPSSGPTYQCLKGTGENYRGNVAVTVSGHTCQHWSAQTPHTHNRTPENFPCKNLDENYCRNPDGKRAPWCHTTNSQVRWEYCKIPSCDSSPVSTEQLAPTAPPELTPVVQDCYHGDGQSYRGTSSTTTTGKKCQSWSSMTPHRHQKTPENYPNAGLTMNYCRNPDADKGPWCFTTDPSVRWEYCNLKKCSGTEASVVAPPPVVLLPDVETPSEEDCMFGNGKGYRGKRATTVTGTPCQDWAAQEPHRHSIFTPETNPRAGLEKNYCRNPDGDVGGPWCYTTNPRKLYDYCDVPQCAAPSFDCGKPQVEPKKCPGR
Plasmin light chain B: VVGGCVAHPHSWPWQVSLRTRFGMHFCGGTLISPEWVLTAAHCLEKSPRPSSYKVILGAHQEVNLEPHVQEIEVSRLFLEPTRKDIALLKLSSPAVITDKVIPACLPSPNYVVADRTECFITGWGETQGTFGAGLLKEAQLPVIENKVCNRYEFLNGRVQSTELCAGHLAGGTDSCQGDSGGPLVCFEKDKYILQGVTSWGLGCARPNKPGVYVRVSRFVTWIEGVMRNN
modifications: Plasmin
For B1, the “T 70%” value in series [1] was 3 h.

B2: trypsin: trypsin, TPCK-treated, Sigma-Aldrich, solution without additives (protein, UniProt P00760 24-246, looked up)
Serine protease 1: IVGGYTCGANTVPYQVSLNSGYHFCGGSLINSQWVVSAAHCYKSGIQVRLGEDNINVVEGNEQFISASKSIVHPSYNSNTLNNDIMLIKLKSAASLNSRVASISLPTSCASAGTQCLISGWGNTKSSGTSYPDVLKCLKAPILSDSSCKSAYPGQITSNMFCAGYLEGGKDSCQGDSGGPVVCSGKLQGIVSWGSGCAQKNKPGVYTKVCNYVSWIKQTIASN
modifications: TPCK-treated
notes: trypsin, TPCK-treated, Sigma-Aldrich, solution without additives
As to B2, the “T 70%” value in series [2] stood at 0.6 h.
